# *1 amine or outer side, *2 acyl side, *3 side chain or, on linkers, in order; H or OH if unused. Bridges are numbered along the chain shown (N, C = ends). [ ]: non-standard residue; d: D form. 1,3‑dibromopropan‑2‑one = linker (CAS 816-39-7) joining two Cys as 1,3-dithio-propan-2-one bridge -SCH2C(=O)CH2S-; Trp(1-Me) = Cn1cc(C[C@H](N)C(=O)O)c2ccccc21; 2Nal = N[C@@H](Cc1ccc2ccccc2c1)C(=O)O; AEF = NCCOc1ccc(C[C@H](N)C(=O)O)cc1; αMeL = CC(C)C[C@](C)(N)C(=O)O; CH2COCH2 = O=C(C[*:1])C[*:2]; αMeK = C[C@](N)(CCCCN)C(=O)O; 3Amb = NCc1cccc(C(=O)O)c1; Abu = CC[C@H](N)C(=O)O
# B1: Compound 28 (peptide)
# peptide: Ac-DKSCWQC[2Nal][2Nal]LER-NH2
# modifications: lactam 2-11; linker 4-7 via CH2COCH2
# SMILES: CC(=O)N[C@@H](CC(=O)O)C(=O)N[C@H]1CCCCNC(=O)CC[C@@H](C(=O)N[C@@H](CCCNC(=N)N)C(N)=O)NC(=O)[C@H](CC(C)C)NC(=O)[C@H](Cc2ccc3ccccc3c2)NC(=O)[C@H](Cc2ccc3ccccc3c2)NC(=O)[C@@H]2CSCC(=O)CSC[C@H](NC(=O)[C@H](CO)NC1=O)C(=O)N[C@@H](Cc1c[nH]c3ccccc13)C(=O)N[C@@H](CCC(N)=O)C(=O)N2
# B2: Compound 30 (peptide)
# peptide: KSCWQCHXLER
# HELM: PEPTIDE1{[ac].K.S.C.W.Q.C.H.[O=C([C@H](Cc1ccc2ccccc2c1)N[*:1])[*:2]].L.E.R.[am]}|CHEM1{[O=C(C[*:1])C[*:2]]}$PEPTIDE1,PEPTIDE1,2:R3-11:R3|PEPTIDE1,CHEM1,4:R3-1:R1|PEPTIDE1,CHEM1,7:R3-1:R2$$$V2.0
# SMILES: CC(=O)N[C@H]1CCCCNC(=O)CC[C@@H](C(=O)N[C@@H](CCCNC(=N)N)C(N)=O)NC(=O)[C@H](CC(C)C)NC(=O)[C@H](Cc2ccc3ccccc3c2)NC(=O)[C@H](Cc2c[nH]cn2)NC(=O)[C@@H]2CSCC(=O)CSC[C@H](NC(=O)[C@H](CO)NC1=O)C(=O)N[C@@H](Cc1c[nH]c3ccccc13)C(=O)N[C@@H](CCC(N)=O)C(=O)N2
# B3: Compound 57 (peptide)
# peptide: Ac-DETCWQCW[2Nal][αMeL]KR-NH2
# modifications: lactam 2-11; linker 4-7 via CH2COCH2
# SMILES: CC(=O)N[C@@H](CC(=O)O)C(=O)N[C@H]1CCC(=O)NCCCC[C@@H](C(=O)N[C@@H](CCCNC(=N)N)C(N)=O)NC(=O)[C@](C)(CC(C)C)NC(=O)[C@H](Cc2ccc3ccccc3c2)NC(=O)[C@H](Cc2c[nH]c3ccccc23)NC(=O)[C@@H]2CSCC(=O)CSC[C@H](NC(=O)[C@H]([C@@H](C)O)NC1=O)C(=O)N[C@@H](Cc1c[nH]c3ccccc13)C(=O)N[C@@H](CCC(N)=O)C(=O)N2
# B4: Compound 32 (peptide)
# peptide: KSCWQCWXLER
# HELM: PEPTIDE1{[ac].K.S.C.W.Q.C.W.[Cn1cc(C[C@H](N[*:1])C(=O)[*:2])c2ccccc21].L.E.R.[am]}|CHEM1{[O=C(C[*:1])C[*:2]]}$PEPTIDE1,PEPTIDE1,2:R3-11:R3|PEPTIDE1,CHEM1,4:R3-1:R1|PEPTIDE1,CHEM1,7:R3-1:R2$$$V2.0
# SMILES: CC(=O)N[C@H]1CCCCNC(=O)CC[C@@H](C(=O)N[C@@H](CCCNC(=N)N)C(N)=O)NC(=O)[C@H](CC(C)C)NC(=O)[C@H](Cc2cn(C)c3ccccc23)NC(=O)[C@H](Cc2c[nH]c3ccccc23)NC(=O)[C@@H]2CSCC(=O)CSC[C@H](NC(=O)[C@H](CO)NC1=O)C(=O)N[C@@H](Cc1c[nH]c3ccccc13)C(=O)N[C@@H](CCC(N)=O)C(=O)N2
# B5: Compound 31 (peptide)
# peptide: KSCWQCWXLER
# HELM: PEPTIDE1{[ac].K.S.C.W.Q.C.W.[O=C([C@H](Cc1ccc(F)cc1)N[*:1])[*:2]].L.E.R.[am]}|CHEM1{[O=C(C[*:1])C[*:2]]}$PEPTIDE1,PEPTIDE1,2:R3-11:R3|PEPTIDE1,CHEM1,4:R3-1:R1|PEPTIDE1,CHEM1,7:R3-1:R2$$$V2.0
# SMILES: CC(=O)N[C@H]1CCCCNC(=O)CC[C@@H](C(=O)N[C@@H](CCCNC(=N)N)C(N)=O)NC(=O)[C@H](CC(C)C)NC(=O)[C@H](Cc2ccc(F)cc2)NC(=O)[C@H](Cc2c[nH]c3ccccc23)NC(=O)[C@@H]2CSCC(=O)CSC[C@H](NC(=O)[C@H](CO)NC1=O)C(=O)N[C@@H](Cc1c[nH]c3ccccc13)C(=O)N[C@@H](CCC(N)=O)C(=O)N2
# B6: Compound 27 (peptide)
# peptide: Ac-KSC[Trp(1-Me)]QCW[2Nal]LER-NH2
# modifications: lactam 1-10; linker 3-6 via CH2COCH2
# SMILES: CC(=O)N[C@H]1CCCCNC(=O)CC[C@@H](C(=O)N[C@@H](CCCNC(=N)N)C(N)=O)NC(=O)[C@H](CC(C)C)NC(=O)[C@H](Cc2ccc3ccccc3c2)NC(=O)[C@H](Cc2c[nH]c3ccccc23)NC(=O)[C@@H]2CSCC(=O)CSC[C@H](NC(=O)[C@H](CO)NC1=O)C(=O)N[C@@H](Cc1cn(C)c3ccccc13)C(=O)N[C@@H](CCC(N)=O)C(=O)N2
# B7: Compound 47 (peptide)
# peptide: Ac-KSCWQC[AEF][2Nal][αMeL]ER-NH2
# modifications: lactam 1-10; linker 3-6 via CH2COCH2
# SMILES: CC(=O)N[C@H]1CCCCNC(=O)CC[C@@H](C(=O)N[C@@H](CCCNC(=N)N)C(N)=O)NC(=O)[C@](C)(CC(C)C)NC(=O)[C@H](Cc2ccc3ccccc3c2)NC(=O)[C@H](Cc2ccc(OCCN)cc2)NC(=O)[C@@H]2CSCC(=O)CSC[C@H](NC(=O)[C@H](CO)NC1=O)C(=O)N[C@@H](Cc1c[nH]c3ccccc13)C(=O)N[C@@H](CCC(N)=O)C(=O)N2
# B8: Compound 1 (peptide)
# peptide: DCSCWQCWWXCR
# modifications: H-DC(1a)SC(2a)WQC(2a)WW[2-Me-Leu]C(1a)R-[NH2]; (1a)=[2,11] and (2a)=[4,7] 1,3-dithio-propan-2-one bridges
# B9: Compound 25 (peptide)
# peptide: Ac-KSC[2Nal]QCW[2Nal]LER-NH2
# modifications: lactam 1-10; linker 3-6 via CH2COCH2
# SMILES: CC(=O)N[C@H]1CCCCNC(=O)CC[C@@H](C(=O)N[C@@H](CCCNC(=N)N)C(N)=O)NC(=O)[C@H](CC(C)C)NC(=O)[C@H](Cc2ccc3ccccc3c2)NC(=O)[C@H](Cc2c[nH]c3ccccc23)NC(=O)[C@@H]2CSCC(=O)CSC[C@H](NC(=O)[C@H](CO)NC1=O)C(=O)N[C@@H](Cc1ccc3ccccc3c1)C(=O)N[C@@H](CCC(N)=O)C(=O)N2
# B10: Compound 35 (peptide)
# peptide: Ac-GCTCWECW[2Nal][αMeL]CR-NH2
# modifications: linker 2-11, 4-7 via CH2COCH2
# SMILES: CC(=O)NCC(=O)N[C@H]1CSCC(=O)CSC[C@@H](C(=O)N[C@@H](CCCNC(=N)N)C(N)=O)NC(=O)[C@](C)(CC(C)C)NC(=O)[C@H](Cc2ccc3ccccc3c2)NC(=O)[C@H](Cc2c[nH]c3ccccc23)NC(=O)[C@@H]2CSCC(=O)CSC[C@H](NC(=O)[C@H]([C@@H](C)O)NC1=O)C(=O)N[C@@H](Cc1c[nH]c3ccccc13)C(=O)N[C@@H](CCC(=O)O)C(=O)N2
# B11: Compound 40 (peptide)
# peptide: [3Amb]SCWQCW[2Nal][αMeL]ER-NH2
# modifications: lactam N-10; linker 3-6 via CH2COCH2
# SMILES: CC(C)C[C@]1(C)NC(=O)[C@H](Cc2ccc3ccccc3c2)NC(=O)[C@H](Cc2c[nH]c3ccccc23)NC(=O)[C@@H]2CSCC(=O)CSC[C@H](NC(=O)[C@H](CO)NC(=O)c3cccc(c3)CNC(=O)CC[C@@H](C(=O)N[C@@H](CCCNC(=N)N)C(N)=O)NC1=O)C(=O)N[C@@H](Cc1c[nH]c3ccccc13)C(=O)N[C@@H](CCC(N)=O)C(=O)N2
# Target: T1, human IL-23R endogenously expressed on DB cells (CRL-2289) (human, UniProt Q5VWK5 24-629)
# T1 sequence (looked up): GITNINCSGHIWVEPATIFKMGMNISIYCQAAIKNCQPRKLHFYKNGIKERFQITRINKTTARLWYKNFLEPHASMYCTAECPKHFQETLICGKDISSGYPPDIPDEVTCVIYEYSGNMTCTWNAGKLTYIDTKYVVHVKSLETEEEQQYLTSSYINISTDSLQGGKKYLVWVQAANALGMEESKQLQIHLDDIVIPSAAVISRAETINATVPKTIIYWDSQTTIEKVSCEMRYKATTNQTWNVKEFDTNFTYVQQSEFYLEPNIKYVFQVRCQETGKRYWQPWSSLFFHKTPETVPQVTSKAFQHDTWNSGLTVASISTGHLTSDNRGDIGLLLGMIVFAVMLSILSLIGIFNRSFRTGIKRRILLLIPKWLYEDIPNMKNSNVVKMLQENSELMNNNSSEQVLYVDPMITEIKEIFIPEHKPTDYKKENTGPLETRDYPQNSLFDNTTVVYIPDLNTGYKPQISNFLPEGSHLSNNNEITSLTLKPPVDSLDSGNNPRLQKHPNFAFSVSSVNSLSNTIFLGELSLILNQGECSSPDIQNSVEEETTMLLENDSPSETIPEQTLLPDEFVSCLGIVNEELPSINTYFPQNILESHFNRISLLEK
# Assay: cell-based or functional assay
row,Binder,IC50 (pSTAT3)
1,B1,27.4 nM
2,B2,68.6 nM
3,B3,167 nM
4,Ac-[Abu]QTWQC[AEF]W[αMeK]ENG-NH2 (thioether 1-6) [Compound C],13.8 nM
5,B4,118 nM
6,"Ac-ESCWQCWWLK-NH2 (lactam 1-10; linker 3-6 via 1,3‑dibromopropan‑2‑one) [Compound 12]",> 1 µM
7,"Ac-DESCWQCWWLK-NH2 (lactam 2-11; linker 4-7 via 1,3‑dibromopropan‑2‑one) [Compound 11]",> 1 µM
8,B5,968 nM
9,B6,15.5 nM
10,B7,17.2 nM
11,B8,783 nM
12,B9,> 1 µM

# Target: T2, Nluc-IL23R fusion protein (human, UniProt Q5VWK5 22-629)
# T2 construct: range 22-629; Stably expressed in HEK293 cells; also called hIL-23R; human IL-23R fused to a Nanoluc luciferase enzyme; not shown: Nanoluc luciferase (Promega N1371 plasmid) at the N-terminus
# T2 sequence (looked up): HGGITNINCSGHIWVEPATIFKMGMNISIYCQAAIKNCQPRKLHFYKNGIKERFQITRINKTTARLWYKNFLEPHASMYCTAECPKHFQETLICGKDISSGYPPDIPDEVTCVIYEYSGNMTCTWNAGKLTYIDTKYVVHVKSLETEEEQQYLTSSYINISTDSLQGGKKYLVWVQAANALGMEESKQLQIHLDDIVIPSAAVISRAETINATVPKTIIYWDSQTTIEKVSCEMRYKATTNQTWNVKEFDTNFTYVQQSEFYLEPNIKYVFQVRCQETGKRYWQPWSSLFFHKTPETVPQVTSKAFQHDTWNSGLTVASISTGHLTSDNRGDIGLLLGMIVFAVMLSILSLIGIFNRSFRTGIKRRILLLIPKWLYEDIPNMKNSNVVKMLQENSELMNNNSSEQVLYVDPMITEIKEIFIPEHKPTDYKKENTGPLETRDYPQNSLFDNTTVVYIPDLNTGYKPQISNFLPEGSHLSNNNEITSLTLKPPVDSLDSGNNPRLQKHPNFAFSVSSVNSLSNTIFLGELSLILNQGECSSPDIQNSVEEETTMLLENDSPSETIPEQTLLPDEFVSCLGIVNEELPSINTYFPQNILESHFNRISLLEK
# Assay: BRET displacement of TAMRA-labelled peptide, Nluc-IL23R membranes
row,Binder,Ki [nM]
1,B1,4.52
2,B2,5.53
3,Ac-KSCWQC[AEF][2Nal]LER-NH2 (lactam 1-10; disulfide 3-6) [Compound 54],178
4,B3,68
5,Ac-[Abu]QTWQC[AEF]W[αMeK]ENG-NH2 (thioether 1-6) [Compound C],2.11
6,B4,14.2
7,"Ac-ESCWQCWWLK-NH2 (lactam 1-10; linker 3-6 via 1,3‑dibromopropan‑2‑one) [Compound 12]",373
8,"Ac-DESCWQCWWLK-NH2 (lactam 2-11; linker 4-7 via 1,3‑dibromopropan‑2‑one) [Compound 11]",706
9,B5,76.3
10,B6,1.77
11,B10,41.2
12,B7,0.624
13,B8,79.8
14,B11,18.1
15,B9,185

# Source: patent US20250154198A1, “PEPTIDE INHIBITORS OF INTERLEUKIN-23 RECEPTOR” (Zealand Pharma A/S, priority 2021, published 2025)
